Earlier results as cited in PMC4937678, “In Vivo Measurement and Characterization of a Novel Formulation of [^177Lu]-DOTA-Octreotate” (Asia Oceania Journal of Nuclear Medicine and Biology, 2016).
Read-outs that look alike come from different tables or passages of the source.

Excerpt: Table 4 Comparison of Published Radiation Dose Estimates for Different Formulations of [^177Lu]-DOTA-Octreotate ([3], [7]-[11]) | column: Dose (mGy/MBq)
[1] = 6 subjects, ref Kwekkeboom (2001) [3]
[2] = 10 subjects, value (range), ref Cremonesi (2006) [10]
[3] = 24 subjects, range, ref Sandstrom (2010) [8]

C[C@@H](O)[C@H](NC(=O)[C@@H]1CSSC[C@H](NC(=O)[C@@H](Cc2ccccc2)NC(=O)CN2CCN(CC(=O)[O-])CCN(CC(=O)[O-])CCN(CC(=O)[O-])CC2)C(=O)N[C@@H](Cc2ccc(O)cc2)C(=O)N[C@H](Cc2c[nH]c3ccccc23)C(=O)N[C@@H](CCCCN)C(=O)N[C@@H]([C@@H](C)O)C(=O)N1)C(=O)O.[177Lu+3] [[^177Lu]-DOTA-Octreotate]
Dose, Liver [1]: 0.21 ± 0.08 mGy/MBq
Dose, Red Marrow [1]: 0.07 ± 0.01 mGy/MBq
Dose, Spleen [1]: 2.15 ± 0.39 mGy/MBq
Dose, Liver [2]: 0.18 (0.05 – 0.34) mGy/MBq
Dose, Red Marrow [2]: 0.04 (0.02 – 0.06) mGy/MBq
Dose, Spleen [2]: 0.64 (0.29-2.91) mGy/MBq
Dose, Red Marrow (14 subjects, ref Forrer (2009) [9]): 0.02 ± 0.03 mGy/MBq
Dose, Kidney (range) [3]: (0.32 – 1.67) mGy/MBq
Dose, Liver (range) [3]: (0.13 – 1.10) mGy/MBq
Dose, Spleen (range) [3]: 0.21 – 1.86 mGy/MBq
Dose, Red Marrow (27 subjects, ref Wehrmann (2007) [11]): 0.04 ± 0.02 mGy/MBq
Dose, Spleen (73 subjects, ref Wehrmann (2007) [11]): 1.2 ± 0.5 mGy/MBq
Dose, Kidney (89 subjects, ref Wehrmann (2007) [11]): 0.9 ± 0.3 mGy/MBq
Dose, Kidney (no renal protection, 6 subjects, ref Kwekkeboom (2001) [3]): 1.65 mGy/MBq
Dose, Kidney (with renal protection, 5 subjects, ref Kwekkeboom (2001) [3]): 0.88 mGy/MBq
